Ends that are not written are not given here.

For test [1], the target named is T1, RAD21*M (predicted separase cleavage fragment of RAD21, recombinant, expressed in HEK-293 cells) (UniProt O60216 173-450).
T1 construct: domain: RAD21*M; Transiently expressed from a plasmid in HEK-293
T1 sequence (looked up): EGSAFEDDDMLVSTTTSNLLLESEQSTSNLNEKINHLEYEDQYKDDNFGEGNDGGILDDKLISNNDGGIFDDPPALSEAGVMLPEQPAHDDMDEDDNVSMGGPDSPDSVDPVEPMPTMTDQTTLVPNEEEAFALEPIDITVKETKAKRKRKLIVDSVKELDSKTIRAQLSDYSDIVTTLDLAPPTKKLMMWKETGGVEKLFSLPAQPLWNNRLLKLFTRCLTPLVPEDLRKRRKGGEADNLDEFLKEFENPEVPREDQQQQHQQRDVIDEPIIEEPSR
Nature of the test: immunoprecipitation by the standard ChIP procedure of recombinant protein from HEK-293 extracts.

For test [2], the target named is T2, GST fusion with RAD21 cleavage site 2 peptide IEEPSR at the COOH terminus (also: fused to GST at N-terminal side).
T2 construct: E. coli extract of GST fused to the peptide near the RAD21 cleavage site; also called 肽段IEEPSR(切割位点2); not shown: GST (glutathione S-transferase) fusion partner, expressed in E. coli
T2 chain: {GST}-IEEPSR
Description: immunoblot, hybridoma ascites on E. coli extracts of GST-peptide fusions. A general note: Immunoblotting shows a protein as a band on a membrane.

Test [3] concerns the target T3, GST fusion with REC8 cleavage site 2 peptide PSEIEVPR at the COOH terminus (also: fused to GST at N-terminal side).
T3 construct: not shown: GST (glutathione S-transferase) fusion partner, expressed in E. coli
T3 chain: {GST}-PSEIEVPR
Described as above.

B1: 抗RAD21新表位单克隆抗体IB22-S (antibody, mouse IgG2a, kappa, V domains shown)
VH: EVQLVESGGGLVQPRGSLKLSCAASGFTFNNYAMNWVRQAPGKGLEWVARIRSKSKNYAIYYADSVKDRFTISRDDSQTMLYLQMNNLKTEDTGMYYCVAPSYSGSSPFAYWGQGTLVTVSA
VL: DVLMTQTPLSLPVSLGDQASISCRSSQSFVHSNGNTYLEWYLQKPGQSPKLLIYKVSNRFSGVPDRFSGSGSGTDFTLKISRVEAEDLGVYYCFQGSHVPFTFGSGTKLEIKR
notes: Mouse hybridoma antibody (ascites used in blots); also called 1B22s
Turning to B1, the binding result in test [1] and in test [2] was “binds” in each case.

B2: 抗REC8新表位单克隆抗体IE22-D (antibody, V domains shown)
VH: EVQLQQSGAEVVKPGASVKLSCTASGFNIKDTYMHWVNQRPEQGLEWIGRNDPANGNSKYDPKFQGKATITADTSSNTAYLQLSSLTSEDTAVYYCARGVRQGAWFAYWGQGTLVTVSA
VL: DVLMTQTPLSLPVSLGDQASISCRSSQSIVHSNGNTYLEWYLQKPGQSPKLLIYKVSNRFSGVPDRFSGSGSGTDFTLKISRVEAEDLGVYYCFQGSHVFTFGAGTKLELKR
notes: Mouse hybridoma antibody (ascites used in blots); also called 1E22d
In the case of B2, the binding result in test [3] is “binds”.

The values above are taken from patent publication CN114456266A (dated 2022).
